Data on 15 molecules can be found in patent EP2469278A1, “Reagentless fluorescent biosensors from nanofitins, rational design methods to create reagentless fluorescent biosensors and methods of their use” (Institut Pasteur, priority 2010, dated 2012).

Where a chain is given by its changes, count along the chain named. Names and notes keep the numbering of the source. Values joined by “and” are separate entries in the source; they are usually repeats but may differ in a detail not shown here. Identical values can stand only once. Bounds are passed on as bounds.

The target in assay [1] is T1, hen egg-white lysozyme (hen, UniProt P00698 19-147).
T1 construct: also called HEL
Kind of assay: Biacore kinetics, HEL immobilised; Kd' = koff/kon. Background: In SPR one partner is held on a chip, and binding of the other changes the refractive index at the surface.

In assay [2] the target is T1, hen egg-white lysozyme. Kind of assay: Biacore kinetics, HEL immobilised on CM5 chip, buffer E (reducing), 25 °C, 1:1 Langmuir model.
For assay [3], the target named is T1, hen egg-white lysozyme. Kind of assay: competition Biacore in solution, buffer D; free H4S measured on immobilised HEL.
The target in assay [4] is T1, hen egg-white lysozyme. Kind of assay: Biacore, HEL immobilised; Kd'' dissociation constant at steady state.
Assay [5] deals with bovine serum albumin (BSA) (Bos taurus, UniProt P02769). Kind of assay: Specificity: titration of H4S conjugates with heterologous antigen BSA, monitored by fluorescence. The conditions noted are these: for ΔF∞/F0: BSA as antigen, buffer C, 0.3 µM conjugate; for relative sensitivities sr lower for BSA than for HEL: [B]0 = 0.3 µM.
For assay [6], the target named is T2, hen egg-white lysozyme (HEL) (Gallus gallus, UniProt P00698).
T2 construct: hen egg-white lysozyme (HEL); purchased Sigma
Kind of assay: Titration of H4S conjugates with HEL, monitored by fluorescence. The class given is binding. The conditions noted are these: for sr: relative sensitivity of the conjugate at a fixed concentration of 0.3 µM (Equation 8), buffer C. The protocol:
(§1) The binding and fluorescence experiments were performed at equilibrium as if the preparations of conjugates were homogeneous, i. e. as if yc = 1. The binding reactions were conducted by incubating 0.3 µM of conjugate with variable concentrations of the HEL or BSA antigens in a volume of 1 mL, for 30 min in the dark with gentle shaking. The reactions were carried out in Buffer C or in a mixture v:(1-v) of calf serum and Buffer C as indicated in example 2.
The conjugate (or biosensor) B and antigen A form a 1:1 complex B:A according to the reaction: B + A↔B:A [formula] At equilibrium, the concentration [B:A] of the complex is given by the equation: [B:A] = 0.5{[B]0+[A]0+Kd-(((([B]0+[A]0+Kd))^2-4[B]0[A]0))^(1/2)} [formula] where Kd is the dissociation constant, and [A]0 and [B]0 are the total concentrations of A and B, respectively (Renard et al., 2003).
The fluorescence of the IANBD conjugates was excited at 485 nm (5 nm slit width) and its intensity measured between 520 and 550 nm (20 nm slit width) with a FP-6300 spectrofluorometer (Jasco). The signal of HEL alone or BSA alone was measured in an independent experiment and subtracted from the global signal of the binding mixture to give the specific fluorescence intensity F of each conjugate. The intensity F at a given value of [A]0 satisfies the following equation: (F-F0)/F0 = ΔF/F0 = (ΔF∞/F0)([B:A]/[B]0) [formula] where F0 and F∞ are the values of F at zero and saturating concentrations of A (Renard et al., 2003). The values of ΔF∞/F0, Kd, and [B]0 could be determined by fitting Equation 5, in which [B:A] is given by Equation 4, to the experimental values of ΔF/F0, measured in a titration experiment. The fittings were performed with the Kaleidagraph software (Synergy Software).
The sensitivity s and relative sensitivity sr of a conjugate can be defined by the following equations for the low values of [A]0, i. e. in the initial part of the titration curve: ΔF = s[A]0 [formula] ΔF/F0 = sr [A]0 /[B]0 [formula] s and sr can be expressed as functions of characteristic parameters of the conjugate: sr = (ΔF∞/F0)([B]0/(Kd+[B]0)) [formula] s = fb sr [formula] where fb = F0/[B]0 is the molar fluorescence of the free conjugate (Renard and Bedouelle, 2004). Equation 8 implies that sr is maximal when the biosensor B is present at a concentration [B]0 >> Kd, as every newly titrated molecule A then forms a complex. Equation 6 implies that the lower limit of detection δ[A]0 of the conjugate is linked to the lower limit of measurement of the spectrofluorometer δF by the following equations: δ[A]0 = s^-1 δF = sr^-1 [B]0 (δF/F0) [formula]

The target of assay [7] is T2, hen egg-white lysozyme (HEL). Kind of assay: Selectivity: fluorescence signal of conjugate in mixtures of calf serum and buffer C. The class given is binding. As to conditions: 0.3 µM conjugate, 10 µM HEL. The method, then:
as §1
The selectivity of a biosensor refers to the extent to which it can recognize a particular analyte in a complex mixture without interference from other components (Vessman et al., 2001). The selectivity of the H4S(K24ANBD) conjugate was characterized by comparing its fluorescence properties in serum and in buffer C. More specifically, the variations of the F0 and F10µM parameters were measured as functions of the concentration in serum (Figure 3). Given that Kd = 0.1 µM for H4S(K24ANBD), this conjugate was fully saturated with HEL at 10 µM. […] As expected, the absorbance of the serum alone increased linearly with its concentration, in agreement with the Beer-Lambert law, at both 485 nm and 536 nm, which were the wavelengths of fluorescence excitation and emission in our experiments. […] The same increase and decrease was observed when measuring the fluorescence of a conjugate between IANBD and 2-mercaptoethanol. […]

For assay [8], the target named is T1, hen egg-white lysozyme. Kind of assay: from Kd in solution: fluorescence titration of conjugate against competition Biacore of H4S(wt).
Assay [9] addresses T1, hen egg-white lysozyme. Kind of assay: fluorescence titration in solution, 0.3 µM conjugate, buffer C, 25 °C (fit R = 0.72).
The target of assay [10] is T1, hen egg-white lysozyme. Kind of assay: fluorescence titration in solution, 0.3 µM conjugate, buffer C, 25 °C.
The next assay has as its target T3, bovine serum albumin (bovine, UniProt P02769 25-607).
T3 construct: Heterologous antigen used as specificity control; also called BSA
Kind of assay: fluorescence titration with BSA, 0.3 µM conjugate, buffer C.

For assay [11], the target named is T1, hen egg-white lysozyme. Kind of assay: comparison of Kd in solution (fluorescence titration against competition Biacore).

In general, Kd refers to a measure of binding affinity in units of concentration. What is called koff is the first-order rate constant of dissociation. A high value points to fast dissociation. The kon is the rate constant with which the complex forms.

B1: H4S(wt) (designed binder)
chain: MRGSHHHHHHGSVKVKFFWNGEEKEVDTSKIVWVKRAGKSVLFIYDDNGKNGYGDVTEKDAPKELLDMLARAEREKKLN
notes: Nanofitin derived from Sac7d (Sulfolobus acidocaldarius), H4 with Cys29 changed into Ser29; His-tagged; also called H4S protein; parental Nanofitin H4S(wt)
For the molecule B1, the figures for the Kd with hen egg-white lysozyme [1], in the assay with hen egg-white lysozyme [3] and in the assay with hen egg-white lysozyme [4] were 31 nM, 40.3 nM and 18 nM, respectively. The koff with hen egg-white lysozyme [2] turned out to be 0.015 s⁻¹. For the same molecule, in the assay with hen egg-white lysozyme [2], the kon was 490000 M⁻¹ s⁻¹.

B2: Lys24: H4S conjugate: residue Lys24 changed into cysteine and coupled with IANBD (SEQ ID NO: 61) (conjugate)
chain: B1 chain with K35C
modifications: IANBD fluorophore on Cys24
Regarding B2, in assay [5], the “ΔF∞/F0” value worked out at 0.26± 0.01 and the “relative sensitivities sr lower for BSA than for HEL” value is 106 fold. For the same molecule, the Kd in assay [6] (HEL, rounded value quoted in text, read-out: Kd) was found to be 100 nM. Besides, the “lower limit of detection δ[A]0” value in assay [6] ([B]0 = 0.3 µM, δF/F0 = […] (Equation 10)) worked out at 0.35 nM. Further, the sr in assay [6] (HEL) worked out at 6.61. In addition, the sr in assay [6] (HEL, listed as H4S(Lys24ANBD)) stood at 6.6. For the same molecule, the “(F10µM - F0)/F0” value in assay [7] (in ≤ 50 % serum) was at least 0.25. For the same molecule, the “concentration of serum in which the conjugate could still operate” value in assay [7] (serum (v/v) in buffer C) is recorded as at most 50%.

B3: Ala26: H4S conjugate: residue Ala26 changed into cysteine and coupled with IANBD (SEQ ID NO: 62) (conjugate)
chain: B1 chain with A37C
modifications: IANBD fluorophore on Cys26
For B3, in assay [5], the “ΔF∞/F0” value is reported as 0.73 ± 0.04 and the “relative sensitivities sr lower for BSA than for HEL” value stood at 36 fold. The sr in assay [6] (HEL) came out at 4.66.

B4: H4S cysteine mutant V21C (not conjugated) (designed binder)
chain: B1 chain with V32C
notes: Free cysteine mutant, measured in reducing conditions
For B4, the Kd with hen egg-white lysozyme [1] stood at 332 nM. For the same molecule, in the assay with hen egg-white lysozyme [2], the koff was 0.011 s⁻¹ and the kon came out at 40000 M⁻¹ s⁻¹. The Kd in the assay with hen egg-white lysozyme [4] came to 389 nM.

B5: H4S conjugate, IANBD fluorophore coupled at position Trp22 (designed binder)
chain: B1 chain with W33C
modifications: Cys at position 22 (H4S numbering) coupled to IANBD ester (ANBD)
In the case of B5, the “ΔΔG (conjugate against H4S(wt))” value with hen egg-white lysozyme [8] was at least 1.5 kcal/mol. The molecule also returned a Kd with hen egg-white lysozyme [9] of 1230 nM.

B6: H4S conjugate, IANBD fluorophore coupled at position Thr46 (designed binder)
chain: B1 chain with T57C
modifications: Cys at position 46 (H4S numbering) coupled to IANBD ester (ANBD)
As to B6, in the assay with hen egg-white lysozyme [10], the affinity, expressed as Kd, was 100 nM and the “ΔF∞/F0 (maximal relative variation of fluorescence on HEL binding)” value was determined as 0.36. In the assay with hen egg-white lysozyme [8], the “ΔΔG (conjugate against H4S(wt))” value is at most 0.5 kcal/mol.

B7: H4S conjugate, IANBD fluorophore coupled at position Val21 (designed binder)
chain: B1 chain with V32C
modifications: Cys at position 21 (H4S numbering) coupled to IANBD ester (ANBD)
For B7, in the assay with hen egg-white lysozyme [10], binding was put at a Kd of 296 nM and the “ΔF∞/F0 (maximal relative variation of fluorescence on HEL binding)” value was 6.3. Moreover, in the assay with hen egg-white lysozyme [8], the “ΔΔG (conjugate against H4S(wt))” value was ≥ 0.5 kcal/mol and ≤ 1.2 kcal/mol.

B8: H4S cysteine mutant K39C (not conjugated) (designed binder)
chain: B1 chain with K50C
notes: as for B4
Molecule B8 registered a Kd with hen egg-white lysozyme [1] of 38 nM. Further, in the assay with hen egg-white lysozyme [2], the koff was 0.012 s⁻¹ and the kon was found to be 310000 M⁻¹ s⁻¹. The molecule further showed a Kd in the assay with hen egg-white lysozyme [4] of 24 nM.

B9: H4S conjugate, IANBD fluorophore coupled at position Trp8 (designed binder)
chain: B1 chain with W19C
modifications: Cys at position 8 (H4S numbering) coupled to IANBD ester (ANBD)
As to B9, in the assay with hen egg-white lysozyme [10], the Kd was found to be 189 nM and the “ΔF∞/F0 (maximal relative variation of fluorescence on HEL binding)” value came to 1.47. In the assay with hen egg-white lysozyme [8], the “ΔΔG (conjugate against H4S(wt))” value is ≥ 0.5 kcal/mol and ≤ 1.2 kcal/mol.

B10: H4S cysteine mutant A26C (not conjugated) (designed binder)
chain: B1 chain with A37C
notes: as for B4
In turn, B10 gave a Kd in the assay with hen egg-white lysozyme [1] of 60 nM. Also, in the assay with hen egg-white lysozyme [2], the koff amounted to 0.023 s⁻¹ and the kon stood at 380000 M⁻¹ s⁻¹. In the assay with hen egg-white lysozyme [4], this molecule displayed a Kd of 54 nM.

B11: H4S(K24C) (not conjugated) (designed binder)
chain: B1 chain with K35C
notes: as for B4
The molecule B11 came in with a Kd with hen egg-white lysozyme [1] of 117 nM. In addition, in the assay with hen egg-white lysozyme [2], the koff came to 0.023 s⁻¹ and the kon amounted to 160000 M⁻¹ s⁻¹. Also, binding in the assay with hen egg-white lysozyme [4] was put at a Kd of 104 nM.

B12: H4S(A26ANBD) (designed binder)
chain: B1 chain with A37C
modifications: Cys at position 26 (H4S numbering) coupled to IANBD ester (ANBD)
notes: also called Ala26
For the molecule B12, the Kd with hen egg-white lysozyme [10] was 206 nM; in the assay with bovine serum albumin, 1400 nM. In addition, in the assay with hen egg-white lysozyme [10], the “ΔF∞/F0 (maximal relative variation of fluorescence on HEL binding)” value came out at 7.9. Moreover, the “ΔΔG (conjugate against H4S(wt))” value in the assay with hen egg-white lysozyme [8] is ≥ 0.5 kcal/mol and ≤ 1.2 kcal/mol.

B13: H4S(K24ANBD) (designed binder)
chain: B1 chain with K35C
modifications: Cys at position 24 (H4S numbering) coupled to IANBD ester (ANBD)
notes: also called H4S(Lys24ANBD); Lys24
In the case of B13, in the assay with hen egg-white lysozyme [10], the Kd was determined as 98 nM and the “ΔF∞/F0 (maximal relative variation of fluorescence on HEL binding)” value is 8.8. Besides, in the assay with hen egg-white lysozyme [8], the “ΔΔG (conjugate against H4S(wt))” value is ≥ 0.5 kcal/mol and ≤ 1.2 kcal/mol. The “fold lower affinity than the parental protein H4S(wt)” value in the assay with hen egg-white lysozyme [11] is about 2 fold. The affinity in the assay with bovine serum albumin, expressed as Kd, was 1000 nM.

B14: H4S conjugate, IANBD fluorophore coupled at position Tyr42 (designed binder)
chain: B1 chain with Y53C
modifications: Cys at position 42 (H4S numbering) coupled to IANBD ester (ANBD)
As for B14, in the assay with hen egg-white lysozyme [10], the Kd worked out at 2480 nM and the “ΔF∞/F0 (maximal relative variation of fluorescence on HEL binding)” value was found to be 6.6. Further, the “ΔΔG (conjugate against H4S(wt))” value in the assay with hen egg-white lysozyme [8] was at least 1.5 kcal/mol.

B15: H4S cysteine mutant W8C (not conjugated) (designed binder)
chain: B1 chain with W19C
notes: as for B4
In turn, B15 yielded a Kd in the assay with hen egg-white lysozyme [1] of 68 nM. In the assay with hen egg-white lysozyme [2], this molecule showed a koff of 0.03 s⁻¹ and a kon of 450000 M⁻¹ s⁻¹. The molecule also yielded a Kd in the assay with hen egg-white lysozyme [4] of 66 nM.
